Residue numbers refer to the chain shown, from its start.
T1: human DR3-Fc fusion protein (human, UniProt Q93038 25-199)
T1 construct: also called hDR3-Fc; not shown: Fc portion
T1 sequence: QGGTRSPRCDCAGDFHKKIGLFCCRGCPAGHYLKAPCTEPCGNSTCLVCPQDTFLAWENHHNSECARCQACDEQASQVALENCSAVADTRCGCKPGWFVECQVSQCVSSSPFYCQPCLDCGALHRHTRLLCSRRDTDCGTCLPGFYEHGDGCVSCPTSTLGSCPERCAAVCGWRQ

T2: human DR3 receptor expressed on the cell surface (human, UniProt Q93038 25-417)
T2 construct: also called hDR3; TNFRSF25
T2 sequence: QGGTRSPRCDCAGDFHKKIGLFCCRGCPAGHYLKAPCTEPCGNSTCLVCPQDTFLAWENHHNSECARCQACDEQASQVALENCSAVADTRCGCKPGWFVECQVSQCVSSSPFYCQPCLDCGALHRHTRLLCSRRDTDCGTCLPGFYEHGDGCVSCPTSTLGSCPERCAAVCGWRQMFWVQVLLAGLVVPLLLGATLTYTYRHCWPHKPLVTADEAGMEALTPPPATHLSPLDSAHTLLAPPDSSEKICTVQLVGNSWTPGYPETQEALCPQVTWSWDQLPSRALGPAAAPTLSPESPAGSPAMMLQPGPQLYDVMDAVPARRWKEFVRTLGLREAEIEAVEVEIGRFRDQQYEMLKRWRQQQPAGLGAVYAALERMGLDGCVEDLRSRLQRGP

B1: H0L0-Fab (Fab, V domains shown)
VH: EVMLVESGGGLVKPGGSLKLSCAASGFTFTNYAMSWVRQTPEKRLEWVATITSGGSYIYYLDSVKGRFTISRDNAKSTLYLQMSSLRSEDTAIYNCARRKDGNYYYAMDYWGQGTSVTVSS
VL: DIVLTQSPASLAVSLGQRATISCRASESVDSYGNSFIHWYQQKAGQPPKLLIYRASNLESGIPARFSGSGSRTDFTLTINPVEADDVATYYCQQSYEDPWTFGGGTKLEIKR
notes: also called 11H08-Fab; parental anti-DR3 molecule
B2: H0.1L0-Fab (Fab, V domains shown)
VH: B1 VH with N95Y
VL: B1 VL
B3: H1.1L4-Fab (Fab, V domains shown)
VH: EVQLVESGGGLVKPGGSLRLSCAASGFTFTNYAMSWVRQAPGQRLEWVSTITSGGSYIYYLDSVKGRFTISRDNAKSTLYLQMNSLRAEDTAVYYCARRKDGNYYYAMDYWGQGTTVTVSS
VL: DIVLTQTPLSLSVTPGQPASISCRASESVDSYGNSFIHWYQQKPGQPPKLLIYRASNLESGIPARFSGSGSRTDFTLKISRVEAEDVGVYYCQQSYEDPWTFGGGTKLEIKR
B4: H4.2L2-Fab (Fab, V domains shown)
VH: QVQLVQSGSELKKPGASVKVSCKASGFTFTNYAMSWVRQAPGKRLEWVATITSGGSYIYYLDSVKGRFTISRENAKSTLYLQMNSLRTEDTALYYCARRKDGNYYYAMDYWGQGTTVTVSS
VL: DIVLTQSPSSLSASVGDRVTITCRASESVDSYGNSFIHWYQQKPGQPPKLLIYRASNLESGIPARFSGSGSRTDFTLTISSLQPEDFATYYCQQSYEDPWTFGGGTKLEIKR
B5: H5.3L2-Fab (Fab, V domains shown)
VH: B4 VH with Q1E, Q3M, V5L, S9A, L11V, K43Q, E73D, Y80H, T88A, L93V
VL: B4 VL
B6: H5.3L4-Fab (Fab, V domains shown)
VH: B4 VH with Q1E, Q3M, V5L, S9A, L11V, K43Q, E73D, Y80H, T88A, L93V
VL: B3 VL
B7: H1.1L1-Fab (Fab, V domains shown)
VH: B3 VH
VL: B4 VL with S9A, S10T, A13L, V15P, D17E, V19A, I21L, T22S, Q83E, T89V
B8: H1.1L2-Fab (Fab, V domains shown)
VH: B3 VH
VL: B4 VL
B9: H1L2-Fab-HSA (Fab)
heavy: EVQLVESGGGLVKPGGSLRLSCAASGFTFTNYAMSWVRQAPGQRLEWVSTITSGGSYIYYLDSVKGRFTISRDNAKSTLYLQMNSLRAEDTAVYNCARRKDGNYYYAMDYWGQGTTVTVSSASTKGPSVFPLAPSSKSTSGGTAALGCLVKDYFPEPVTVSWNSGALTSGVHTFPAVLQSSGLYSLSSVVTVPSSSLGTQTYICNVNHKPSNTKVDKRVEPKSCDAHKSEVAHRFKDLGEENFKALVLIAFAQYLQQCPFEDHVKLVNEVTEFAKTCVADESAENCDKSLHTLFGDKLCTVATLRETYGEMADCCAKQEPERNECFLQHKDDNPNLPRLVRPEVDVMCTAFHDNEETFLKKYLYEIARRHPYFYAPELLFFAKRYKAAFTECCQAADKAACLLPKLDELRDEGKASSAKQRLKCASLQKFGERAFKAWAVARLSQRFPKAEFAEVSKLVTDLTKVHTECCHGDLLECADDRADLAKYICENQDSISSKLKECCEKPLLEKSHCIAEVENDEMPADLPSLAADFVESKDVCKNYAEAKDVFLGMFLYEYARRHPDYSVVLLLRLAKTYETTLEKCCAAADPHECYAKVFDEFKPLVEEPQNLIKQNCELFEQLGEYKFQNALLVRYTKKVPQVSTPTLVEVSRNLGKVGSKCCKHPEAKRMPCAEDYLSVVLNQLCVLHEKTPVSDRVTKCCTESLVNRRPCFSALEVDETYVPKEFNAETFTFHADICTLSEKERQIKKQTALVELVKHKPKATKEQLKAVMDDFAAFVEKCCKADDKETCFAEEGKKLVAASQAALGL
light: DIVLTQSPSSLSASVGDRVTITCRASESVDSYGNSFIHWYQQKPGQPPKLLIYRASNLESGIPARFSGSGSRTDFTLTISSLQPEDFATYYCQQSYEDPWTFGGGTKLEIKRTVAAPSVFIFPPSDEQLKSGTASVVCLLNNFYPREAKVQWKVDNALQSGNSQESVTEQDSKDSTYSLSSTLTLSKADYEKHKVYACEVTHQGLSSPVTKSFNRGEC
notes: also called AB13350-C1
B10: H5L2-Fab-HSA (Fab)
heavy: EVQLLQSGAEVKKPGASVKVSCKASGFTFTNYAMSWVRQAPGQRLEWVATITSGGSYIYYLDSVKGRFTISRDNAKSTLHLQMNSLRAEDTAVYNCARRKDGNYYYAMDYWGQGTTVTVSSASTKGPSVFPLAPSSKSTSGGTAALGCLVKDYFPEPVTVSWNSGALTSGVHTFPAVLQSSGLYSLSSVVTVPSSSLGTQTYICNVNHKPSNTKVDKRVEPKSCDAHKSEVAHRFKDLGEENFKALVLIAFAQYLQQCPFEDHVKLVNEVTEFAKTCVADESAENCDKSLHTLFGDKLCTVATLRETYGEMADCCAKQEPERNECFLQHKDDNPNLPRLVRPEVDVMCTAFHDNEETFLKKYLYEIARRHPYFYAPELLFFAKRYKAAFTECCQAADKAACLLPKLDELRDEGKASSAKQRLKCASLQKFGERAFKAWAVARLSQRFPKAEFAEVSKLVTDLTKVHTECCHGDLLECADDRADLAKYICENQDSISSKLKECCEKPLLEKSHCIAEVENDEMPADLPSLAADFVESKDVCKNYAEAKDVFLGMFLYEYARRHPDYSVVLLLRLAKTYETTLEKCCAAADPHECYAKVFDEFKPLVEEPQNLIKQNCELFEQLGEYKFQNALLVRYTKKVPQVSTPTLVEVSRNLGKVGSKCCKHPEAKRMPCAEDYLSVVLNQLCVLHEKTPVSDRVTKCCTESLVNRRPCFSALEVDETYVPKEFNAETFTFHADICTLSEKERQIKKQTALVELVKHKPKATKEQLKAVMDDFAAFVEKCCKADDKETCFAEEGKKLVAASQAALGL
light: B9 light
notes: also called AB13351-C1
B11: human TL1A (ligand, UniProt O95150 72-251, looked up)
chain: LKGQEFAPSHQQVYAPLRADGDKPRAHLTVVRQTPTQHFKNQFPALHWEHELGLAFTKNRMNYTNKFLLIPESGDYFIYSQVTFRGMTSECSEIRQAGRPNKPDSITVVITKVTDSYPEPTQLLMGTKSVCEVGSNWFQPIYLGAMFSLQEGDKLMVNVSDISLVDYTKEDKTFFGAFLL
notes: also called hTL1A; TNFSF15

biological target: T1, human DR3-Fc fusion protein; assay: BIAcore SPR; human DR3-Fc amine-coupled to CM5 chip, Fab in flow; ratio of average Kd
Description: (§1) Briefly, target proteins are covalently immoblilzed to the BIAcore CM5 sensor chip (Cat #BR-1000-14 (Biacore Life Sciences, Piscataway, N.J.)) via amine groups using N-ethyl-N′-(dimethylaminopropyl) carbodilimide/N-hydroxysuccinimide chemistry. Empty flow cells can be used as controls negative for target binding and for background subtraction. Six different concentrations of antibody molecules (range 0 to 50 nM) are flowed over the polypeptide-derivatized flow cells at 15 μL1/min for a total volume of 50 μl. The amount of bound protein is determined during washing of the flow cell with HBS buffer (10 mM HEPES [pH 7.4], 150 mM NaCl, 3.4 mM EDTA, and 0.005% Surfactant P20). The flow cell surface is regenerated by displacing bound protein by washing with 20 μl of 10 mM glycine-HCL (pH 2.3). For kinetic analysis, the on and off rates are determined using the kinetic evaluation program in BIAevaluation 3 software using a 1:1 binding model and the global analysis method.
(§2) In order to confirm that the humanized variant antibodies were capable of binding to the extracellular domain of DR3, the Kd values of eight humanized Fab variants were determined by BIAcore assay. In this experiment, a human DR3-Fc fusion protein was covalently immoblilzed to the BIAcore CM5 sensor chip. Empty flow cells that were negative for anti-DR3-Fab binding were used for background subtraction.

In order of rising “Ratio of binding relative to H0L0-Fab” value:
1. B8  0.85
2. B3  0.94
3. B1  1
4. B7  1.06
5. B2  1.09
6. B5  1.22
7. B6  1.28
8. B4  1.46

biological target: T1, human DR3-Fc fusion protein; assay: BIAcore SPR; human DR3-Fc amine-coupled to CM5 chip, Fab-HSA in flow; ratio of average Kd
Description: as §1
(§3) Additionally, H1L2-Fab and H5L2-Fab were fused to human serum albumin (See, Example 6) and similarly tested. The Kd values of H0L0-Fab-HSA, H1L2-Fab-HSA, and H5L2-Fab-HSA were determined by BIAcore analysis as described above.

In order of falling “Ratio of binding relative to H0L0-Fab” value:
1. B10  1.4
2. B9  0.6

biological target: T1, human DR3-Fc fusion protein; assay: BIAcore SPR; human DR3-Fc amine-coupled to CM5 chip, Fab in flow; 1:1 model; average of n=2
Description: as §1, §2

In order of rising Kd:
1. B8  1.17 nM
2. B3  1.29 nM
3. B1  1.37 nM
4. B7  1.46 nM
5. B2  1.5 nM
6. B5  1.67 nM
7. B6  1.76 nM
8. B4  2.01 nM

biological target: T1, human DR3-Fc fusion protein; assay: BIAcore SPR; human DR3-Fc amine-coupled to CM5 chip, Fab-HSA in flow; 1:1 model; average of n=2
Description: as §1, §3

In order of falling Kd:
1. B10  7.52 nM
2. B9  3.06 nM

biological target: T2, human DR3 receptor expressed on the …; assay: Flow cytometry on HEK293F cells transiently expressing human DR3. 1 ug/mL human TL1A, detected with anti-TL1A-biotin polyclonal antibody and streptavidin-PE. No competitor.
Description: FIG. 4. Flow cytometry results of 11H08 binding to hDR3-expressing HEK293F cells. HEK293F cells transiently expressing human DR3 were used to test the ability of the whole 11H08 immunoglobulin molecule to inhibit human TL1A binding to DR3 (See, Example 2). HEK293F cells were incubated with 1 μg/mL of human TL1A in the presence of either an unrelated antibody (mIgG1) as an isotype control (known not to bind TL1A or DR3) or 11H08. […] The upper panels show binding of labeled TL1A either by itself or in the presence of an unrelated antibody (mIgG1).
The anti-DR3 monoclonal antibody 11H08 was assayed for its ability to inhibit human TL1A binding to human DR3 using techniques known to those skilled in the art. Briefly, HEK293F cells transiently expressing human DR3 were incubated with 1 μg/mL of human TL1A in the presence of either an unrelated antibody (mIgG1) as an isotype control that was known not to bind TL1A or DR3, or an anti-DR3 monoclonal antibody (11H08), for 20 minutes at room temperature. Binding was detected using an anti-TL1A-biotin polyclonal antibody followed by Streptavidin PE. The ability of the anti-DR3 monoclonal antibody to inhibit binding of TL1A to DR3 was measured by flow cytometry.

B11: binds.

From patent publication US20120014950A1 (Xencor, published 2012)
